Measurements from patent US20120240246A1, “Variant Calpastatins and Variant Calpains for Modulating the Activity or Stability of Calpain” (St. Jude Children's Research Hospital, priority 2009, published 2012).
Residue numbers refer to the chain shown, from its start. Names and notes keep the numbering of the source.

Tests used:
[1] = target: T1, m-calpain (Rattus norvegicus, UniProt Q07009); experiment: Calpastatin inhibition assay, hydrolysis by m-calpain; type: biochemical; details: for IC50 values toward m-calpain (in words): derived from initial rate analysis
T1 construct: diminishing activity >1,000-fold compared to full-length m-calpain; His6 (C); made in house; host or cells: E. coli
T1 sequence (Q07009 1-700): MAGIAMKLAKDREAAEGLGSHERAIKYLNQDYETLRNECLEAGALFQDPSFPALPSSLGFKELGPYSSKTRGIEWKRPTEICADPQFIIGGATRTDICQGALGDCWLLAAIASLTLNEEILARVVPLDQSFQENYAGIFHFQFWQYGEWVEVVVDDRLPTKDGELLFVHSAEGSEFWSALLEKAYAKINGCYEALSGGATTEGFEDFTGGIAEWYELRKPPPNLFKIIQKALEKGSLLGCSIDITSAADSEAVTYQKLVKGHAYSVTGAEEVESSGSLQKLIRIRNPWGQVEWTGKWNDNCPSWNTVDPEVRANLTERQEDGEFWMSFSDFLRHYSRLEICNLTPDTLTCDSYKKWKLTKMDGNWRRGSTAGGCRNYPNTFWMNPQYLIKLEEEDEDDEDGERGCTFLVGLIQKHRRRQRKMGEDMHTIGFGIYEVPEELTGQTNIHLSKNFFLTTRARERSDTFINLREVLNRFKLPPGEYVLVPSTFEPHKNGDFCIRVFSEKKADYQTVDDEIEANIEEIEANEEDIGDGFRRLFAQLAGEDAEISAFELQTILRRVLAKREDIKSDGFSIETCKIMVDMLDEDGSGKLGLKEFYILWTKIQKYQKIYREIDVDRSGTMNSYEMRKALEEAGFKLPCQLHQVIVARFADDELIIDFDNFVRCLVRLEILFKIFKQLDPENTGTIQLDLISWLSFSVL
T1 sequence (Q64537 87-270 partner limits assumed): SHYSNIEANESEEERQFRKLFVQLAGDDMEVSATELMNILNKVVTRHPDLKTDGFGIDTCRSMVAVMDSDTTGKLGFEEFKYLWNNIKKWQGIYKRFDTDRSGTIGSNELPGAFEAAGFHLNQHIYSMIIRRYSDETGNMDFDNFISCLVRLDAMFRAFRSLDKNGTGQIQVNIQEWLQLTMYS
Description: (§1) Calpastatin Inhibition Assays. Hydrolysis assays by m-calpain (1 nM or 20 nM), m-calpain mutants (1 nM) and μI-II (1.25-2.5 μM) were performed in 100-μl volumes containing 50 mM HEPES (pH 7.5), 200 mM NaCl, 1 mM DTT, various concentrations of substrate (0-1.5mM SLY-MCA (Sigma) or 0-50 μg/ml BODIPY-casein (Invitrogen)) and increasing inhibitor concentrations: 0-50 nM wild-type or mutant full-length calpastatin, fragments AB and BC, 0-20 μM peptide B1 for m-calpain, and 0-750 μM peptide B1 for μI-II. Duplicates or triplicates were performed for each condition in 96-well plates using a Molecular Devices microplate reader.

[2] = target: T2, μI-II (protease core from μ-calpain) (Rattus norvegicus, UniProt P97571); experiment: Calpastatin inhibition assay, hydrolysis by μI-II; type: biochemical; details: mean ±s.e.m.
T2 construct: the protease core from μ-calpain (μI-II) were expressed in E. coli; made in house; host or cells: E. coli
Description: as §1

[3] = target: protease core from µ-calpain (µI-II) (UniProt P97571); experiment: cell-based or functional assay
[4] = tested on: calpain; details: human sequence; Betts & Anagli (2004); cited from earlier work
[5] = target: calpastatin repeat 1 K176/E177Δ mutant (UniProt P27321)
[6] = target: calpastatin repeat 1 K176Δ mutant (UniProt P27321)
[7] = target: calpastatin repeat 1 E177Δ mutant (UniProt P27321)
[8] = tested on: heterodimeric calpains; details: Wendt, et al. (2004); cited from earlier work
[9] = tested on: m-calpain; experiment: Hydrolysis activity of m-calpain mutants at the DI-II-DIII interface; type: biochemical, rat; details: Ala substitution in DIII of 80 kDa subunit
Description: as §1

[10] = target: m-calpain (catalytically active heterodimer used in hydrolysis and autolysis assays) (rat), Q07009; experiment: cell-based or functional assay
[11] = target: protease core from µ-calpain (µI-II) (UniProt P97571 29-356); experiment: cell-based or functional assay
Sequence of protease core from µ-calpain (µI-II) (UniProt P97571 29-356) (P97571 29-356 limits assumed): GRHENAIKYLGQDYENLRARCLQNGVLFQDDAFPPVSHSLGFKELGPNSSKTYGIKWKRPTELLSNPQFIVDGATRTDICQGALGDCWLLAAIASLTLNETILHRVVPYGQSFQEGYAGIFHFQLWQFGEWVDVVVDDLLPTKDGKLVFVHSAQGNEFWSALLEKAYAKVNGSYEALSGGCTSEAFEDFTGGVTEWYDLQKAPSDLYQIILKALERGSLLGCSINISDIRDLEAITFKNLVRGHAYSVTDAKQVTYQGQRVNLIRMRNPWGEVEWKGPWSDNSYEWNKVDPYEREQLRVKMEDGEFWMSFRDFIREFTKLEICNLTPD

Sequence of protease core from µ-calpain (µI-II) (UniProt P97571) (P97571 29-356 limits assumed): as above
T2 sequence (P97571 55-354 limits assumed): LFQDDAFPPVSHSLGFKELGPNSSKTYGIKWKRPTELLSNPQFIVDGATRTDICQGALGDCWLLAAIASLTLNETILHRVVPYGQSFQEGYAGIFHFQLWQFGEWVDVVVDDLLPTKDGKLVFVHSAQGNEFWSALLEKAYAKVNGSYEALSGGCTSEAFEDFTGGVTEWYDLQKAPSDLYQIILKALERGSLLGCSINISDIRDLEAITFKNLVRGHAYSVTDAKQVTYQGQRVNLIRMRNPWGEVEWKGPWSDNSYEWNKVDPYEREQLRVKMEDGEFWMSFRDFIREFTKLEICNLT
Sequence of calpastatin repeat 1 K176/E177Δ mutant (P27321 whole entry, looked up, stated change not applied): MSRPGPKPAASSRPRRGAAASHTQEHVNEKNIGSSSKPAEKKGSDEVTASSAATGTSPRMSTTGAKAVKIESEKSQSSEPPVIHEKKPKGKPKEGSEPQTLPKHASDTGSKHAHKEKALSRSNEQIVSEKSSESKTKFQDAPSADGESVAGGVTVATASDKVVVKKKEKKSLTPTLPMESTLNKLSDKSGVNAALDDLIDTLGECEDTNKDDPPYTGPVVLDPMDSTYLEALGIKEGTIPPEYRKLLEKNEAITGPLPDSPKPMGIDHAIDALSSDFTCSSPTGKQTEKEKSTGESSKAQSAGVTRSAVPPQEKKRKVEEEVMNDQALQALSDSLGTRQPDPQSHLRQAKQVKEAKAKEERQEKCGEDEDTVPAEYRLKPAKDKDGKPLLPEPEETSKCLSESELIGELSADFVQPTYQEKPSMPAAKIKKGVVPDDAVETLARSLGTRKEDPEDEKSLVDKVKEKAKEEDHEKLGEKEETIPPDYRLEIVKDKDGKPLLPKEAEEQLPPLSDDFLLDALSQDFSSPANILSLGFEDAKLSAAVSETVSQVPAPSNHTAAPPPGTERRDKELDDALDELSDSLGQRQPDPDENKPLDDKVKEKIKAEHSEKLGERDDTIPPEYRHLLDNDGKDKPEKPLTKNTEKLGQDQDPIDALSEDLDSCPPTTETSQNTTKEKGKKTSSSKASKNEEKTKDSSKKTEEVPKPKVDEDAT
Sequence of calpastatin repeat 1 K176Δ mutant (P27321 whole entry, looked up, stated change not applied): as above
Sequence of calpastatin repeat 1 E177Δ mutant (P27321 whole entry, looked up, stated change not applied): as above

Ac-ALGIKEGTIPPEYRKLLE-NH2 [peptide B1, Ac-ALGIKEGTIPPEYRKLLE-NH2]
IC50 ([1]; mean ±s.e.m.): 0.41 ± 0.08 µM

AB: 57-residue calpastatin repeat 1 fragment with regions A and B, ending at Lys190 (SKTKFQDAPSADGESVAGGVTVATASDKVVVKKKEKKSLTPTLPMESTLNKLSDKSG)
IC50 [2]: 80.5 ± 10.2 µM | IC50 values toward m-calpain (in words) [1]: low nanomolar

rat calpastatin inhibitory repeat 1, short construct Ala134-Thr219 (86 residues) (from UniProt P27321 134-219)
IC50 of inhibition of µI-II activity [3]: 155 µM

calpastatin repeat 1 fragment AB (57 residues, ending at Lys190) (from UniProt P27321 134-190) (peptide)
IC50 of inhibition of µI-II activity [3]: 80.5 µM

Asp^163-Gly^174: N-terminal peptide of the 27-residue region B peptide, human sequence (Betts & Anagli 2004) (TLGGPEETEEEN; UniProt P20810 163-174, looked up, fragment)
calpain inhibition when the intact 27-residue peptide is replaced by N- and C-terminal peptides [4]: abolished

calpastatin repeat 1 fragment BC (57 residues, Asp163-Thr219) (from UniProt P27321 163-219) (peptide)
IC50 of inhibition of µI-II activity [3]: 122 µM

m-calpain (catalytically active heterodimer used in hydrolysis and autolysis assays)
autolysis / proteolysis of the complex (SDS-PAGE) [5]: all mutants succumbed to proteolysis within the kink | autolysis / proteolysis of the complex (SDS-PAGE) [6]: all mutants succumbed to proteolysis within the kink | autolysis / proteolysis of the complex (SDS-PAGE) [7]: all mutants succumbed to proteolysis within the kink

B1: repeat 1: 86-residue rat calpastatin inhibitory repeat 1 (residues 134-219), expressed in E. coli (protein, UniProt P27321 134-219, looked up, fragment)
chain: SKTKFQDAPSADGESVAGGVTVATASDKVVVKKKEKKSLTPTLPMESTLNKLSDKSGVNAALDDLIDTLGECEDTNKDDPPYTGPV
modifications: inhibitory repeat 1
IC50 [2]: 155 ± 16.3 µM | IC50 values toward m-calpain (in words) [1]: low nanomolar

B2: calpastatin: 72 kDa endogenous calpain inhibitor with L domain and four 15-kDa inhibitory repeats (protein, listed as Rattus norvegicus)
chain: MESTLNKLSDKSGVNAALDDLIDTLGECEDTNKDDPPYTGPVVLDPMDSTYLEALGIKEGTIPPEYRKLLEKNEAITGPLPDSPKPMGIDHAIDALSSDFTCSSPTGKQTEKEKSTGESS
affinity of inhibition of heterodimeric calpains [8]: nanomolar | inhibition of calpain ([1]; FIG. 7 legend, concerted binding to peripheral domains and active site): low-nanomolar

B3: R417A: rat m-calpain with R417A substitution in DIII of the 80 kDa subunit (protein, UniProt Q07009 20-700; Q64537 1-270, looked up, variant R417A)
Calpain-2 catalytic subunit: SHERAIKYLNQDYETLRNECLEAGALFQDPSFPALPSSLGFKELGPYSSKTRGIEWKRPTEICADPQFIIGGATRTDICQGALGDCWLLAAIASLTLNEEILARVVPLDQSFQENYAGIFHFQFWQYGEWVEVVVDDRLPTKDGELLFVHSAEGSEFWSALLEKAYAKINGCYEALSGGATTEGFEDFTGGIAEWYELRKPPPNLFKIIQKALEKGSLLGCSIDITSAADSEAVTYQKLVKGHAYSVTGAEEVESSGSLQKLIRIRNPWGQVEWTGKWNDNCPSWNTVDPEVRANLTERQEDGEFWMSFSDFLRHYSRLEICNLTPDTLTCDSYKKWKLTKMDGNWRRGSTAGGCRNYPNTFWMNPQYLIKLEEEDEDDEDGERGCTFLVGLIQKHRARQRKMGEDMHTIGFGIYEVPEELTGQTNIHLSKNFFLTTRARERSDTFINLREVLNRFKLPPGEYVLVPSTFEPHKNGDFCIRVFSEKKADYQTVDDEIEANIEEIEANEEDIGDGFRRLFAQLAGEDAEISAFELQTILRRVLAKREDIKSDGFSIETCKIMVDMLDEDGSGKLGLKEFYILWTKIQKYQKIYREIDVDRSGTMNSYEMRKALEEAGFKLPCQLHQVIVARFADDELIIDFDNFVRCLVRLEILFKIFKQLDPENTGTIQLDLISWLSFSVL
Calpain small subunit 1: MFLVNSFLKGGGGGGGGGGLGGGLGNVLGGLISGAAGGGGGGGGGGGMGLGGGGGGGGTAMRILGGVISAISEAAAQYNPEPPPPRSHYSNIEANESEEERQFRKLFVQLAGDDMEVSATELMNILNKVVTRHPDLKTDGFGIDTCRSMVAVMDSDTTGKLGFEEFKYLWNNIKKWQGIYKRFDTDRSGTIGSNELPGAFEAAGFHLNQHIYSMIIRRYSDETGNMDFDNFISCLVRLDAMFRAFRSLDKNGTGQIQVNIQEWLQLTMYS
m-calpain activity after substitution (fraction of wild type) [9]: one-half

B4: R420A: rat m-calpain with R420A substitution in DIII of the 80 kDa subunit (protein, UniProt Q07009 20-700; Q64537 1-270, looked up, variant R420A)
Calpain-2 catalytic subunit: B3 Calpain-2 catalytic subunit with A398R, R401A
Calpain small subunit 1: B3 Calpain small subunit 1
Ca2+ requirement [9]: doubled | m-calpain activity after substitution (fraction of wild type) [9]: one-quarter

B5: R469A: rat m-calpain with R469A substitution in DIII of the 80 kDa subunit (protein, UniProt Q07009 20-700; Q64537 1-270, looked up, variant R469A)
Calpain-2 catalytic subunit: B3 Calpain-2 catalytic subunit with A398R, R450A
Calpain small subunit 1: B3 Calpain small subunit 1
Ca2+ requirement [9]: doubled | decrease in m-calpain activity [9]: > 60 fold

B6: Peptide B1 Ac-…-NH2 (peptide)
peptide: Ac-ALGIKEGTIPPEYRKLLE-NH2
IC50 of inhibition of substrate hydrolysis by m-calpain [10]: 0.41 µM

B7: Peptide B1 Ac-ALGIKEGTIPPEYRKLLE-NH2 (peptide)
peptide: Ac-ALGIKEGTIPPEYRKLLE-NH2
IC50 of inhibition of µI-II activity [11]: 24.5 µM
